This note sets out measurements from PMC4823828, “A squalene synthase-like enzyme initiates production of tetraterpenoid hydrocarbons in Botryococcus braunii Race L” (Nature Communications, 2016).

For one data set, the target named is T1, SSL-2 (Botryococcus braunii, UniProt G0Y287).
T1 construct: SSL-2 delta392-465: C-terminal transmembrane domain deleted, N-terminal 6xHis (pET28a), E. coli BL21(DE3), Ni-NTA
In words: radioactive TLC assay. The class given is biochemical. The conditions noted are these: labelled compound (3H), 10 μM; 2 mM NADPH, 20 mM MgCl2, MOPS pH 6.8, 37 °C; product lycopaoctaene (minor).

The target of a further data set is T2, SlSS (Solanum lycopersicum, UniProt A0A3Q7ETS2).
T2 construct: gene SQS1; SlSS delta387-411: C-terminal transmembrane domain deleted, N-terminal 6xHis (pET28a), E. coli BL21(DE3), Ni-NTA; NM_001247787 assigned to SlSS by judgement
In words: radioactive TLC assay. It is filed as biochemical. The conditions noted are these: labelled compound (3H), 10 μM, 2 mM NADPH, 20 mM MgCl2, MOPS pH 6.8, 37 °C.

The next data set addresses T3, BSS (SS from race B) (Botryococcus braunii, UniProt Q9SDW9).
T3 construct: BSS delta399-461: C-terminal transmembrane domain deleted, N-terminal 6xHis (pET28a), E. coli BL21(DE3), Ni-NTA
In words: radioactive TLC assay. The class given is biochemical. Particulars: labelled compound (3H), 10 μM, 2 mM NADPH, 20 mM MgCl2, MOPS pH 6.8, 37 °C.

For another data set, the target named is T4, LSS (SS from race L) (Botryococcus braunii, UniProt A0A144YEA5).
T4 construct: LSS delta399-462: C-terminal transmembrane domain deleted, N-terminal 6xHis (pET28a), E. coli BL21(DE3), Ni-NTA
In words: GC-MS product assay; radioactive TLC assay. It is filed as biochemical. The conditions noted are these: 10 μM substrate in radioactive assay; 2 mM NADPH, 20 mM MgCl2, MOPS pH 6.8, 37 °C; product squalene.

For data set [1], the target named is T5, LOS (lycopaoctaene synthase) (Botryococcus braunii, UniProt A0A142ZC57).
T5 construct: LOS delta391-444: C-terminal transmembrane domain deleted from 444-residue protein, N-terminal 6xHis (pET28a), E. coli BL21(DE3), Ni-NTA
In words: GC-MS of lycopaoctaene product from GGPP. Particulars: 20 nM squalestatin; GGPP substrate, NADPH, Mg2+, pH 6.8, 37 °C. It is filed as biochemical.

Substrate in data set [2]: C/C(=C\COP(=O)(O)OP(=O)(O)O)CCC[C@H](C)CCC[C@H](C)CCCC(C)C
Description: radioactive steady-state assay, n-hexane extraction, TLC, scintillation counting. It is filed as biochemical, Botryococcus braunii. The conditions noted are these: labelled compound (3H), 2 mM NADPH, 20 mM MgCl2, MOPS pH 6.8, 37 °C, 100 nM enzyme. The source says: (§1) radioactive steady-state assay, n-hexane extraction, TLC, scintillation counting on LOS (lycopaoctaene synthase)

Substrate in data set [3]: CC(C)=CCC/C(C)=C/CC/C(C)=C/CC/C(C)=C/COP(=O)(O)OP(=O)(O)O
The data set is described as above. The class given is biochemical, Botryococcus braunii. The conditions noted are these: labelled compound (3H), 2 mM NADPH, 20 mM MgCl2, MOPS pH 6.8, 37 °C, 100 nM enzyme.
Source text: as §1

Substrate in data set [4]: CC(C)=CCC/C(C)=C/CC/C(C)=C/CO[P@@](=O)(O)OP(=O)(O)O
The description is as above. The class given is biochemical, Botryococcus braunii. The conditions noted are these: labelled compound (3H), 2 mM NADPH, 20 mM MgCl2, MOPS pH 6.8, 37 °C, 100 nM enzyme.
Source text: as §1

One may read the Km as the concentration of substrate that gives half-maximal velocity. Usually kcat stands for the number of substrate molecules converted per active site and unit of time at saturation. A word on the kcat/Km: it is the turnover number divided by the Michaelis constant.

T2 sequence (A0A3Q7ETS2 entry or part of it): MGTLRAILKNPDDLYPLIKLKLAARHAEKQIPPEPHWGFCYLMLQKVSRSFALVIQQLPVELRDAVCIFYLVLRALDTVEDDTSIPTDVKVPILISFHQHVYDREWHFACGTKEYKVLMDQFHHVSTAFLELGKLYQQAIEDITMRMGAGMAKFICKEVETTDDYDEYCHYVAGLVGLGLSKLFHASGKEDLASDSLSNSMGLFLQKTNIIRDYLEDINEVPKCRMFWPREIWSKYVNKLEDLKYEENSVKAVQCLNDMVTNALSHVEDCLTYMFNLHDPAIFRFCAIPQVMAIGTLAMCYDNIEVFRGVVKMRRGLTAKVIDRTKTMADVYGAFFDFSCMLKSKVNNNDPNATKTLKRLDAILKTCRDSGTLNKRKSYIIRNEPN
T3 sequence (Q9SDW9 1-398): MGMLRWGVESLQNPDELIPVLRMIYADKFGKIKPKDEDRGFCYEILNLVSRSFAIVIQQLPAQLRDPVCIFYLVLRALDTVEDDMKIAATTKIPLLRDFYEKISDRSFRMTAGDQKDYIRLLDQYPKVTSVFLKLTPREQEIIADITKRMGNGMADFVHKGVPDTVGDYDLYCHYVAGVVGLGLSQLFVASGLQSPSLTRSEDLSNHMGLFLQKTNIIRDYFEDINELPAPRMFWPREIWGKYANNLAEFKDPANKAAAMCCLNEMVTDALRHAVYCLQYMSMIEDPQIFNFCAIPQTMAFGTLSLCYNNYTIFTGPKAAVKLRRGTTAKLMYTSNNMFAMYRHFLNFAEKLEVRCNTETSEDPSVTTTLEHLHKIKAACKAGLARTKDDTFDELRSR
T4 sequence (A0A144YEA5 1-398): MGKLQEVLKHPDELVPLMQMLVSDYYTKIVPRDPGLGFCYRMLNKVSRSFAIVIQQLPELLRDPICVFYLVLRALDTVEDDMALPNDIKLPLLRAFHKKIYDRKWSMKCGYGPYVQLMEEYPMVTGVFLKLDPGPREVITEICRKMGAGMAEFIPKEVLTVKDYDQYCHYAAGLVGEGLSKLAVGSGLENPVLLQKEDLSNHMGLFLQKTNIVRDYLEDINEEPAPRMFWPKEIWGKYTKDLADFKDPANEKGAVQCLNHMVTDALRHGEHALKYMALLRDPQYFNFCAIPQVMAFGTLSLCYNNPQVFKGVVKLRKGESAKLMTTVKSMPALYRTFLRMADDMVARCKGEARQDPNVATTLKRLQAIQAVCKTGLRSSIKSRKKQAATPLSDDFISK
T1 sequence (G0Y287 1-391): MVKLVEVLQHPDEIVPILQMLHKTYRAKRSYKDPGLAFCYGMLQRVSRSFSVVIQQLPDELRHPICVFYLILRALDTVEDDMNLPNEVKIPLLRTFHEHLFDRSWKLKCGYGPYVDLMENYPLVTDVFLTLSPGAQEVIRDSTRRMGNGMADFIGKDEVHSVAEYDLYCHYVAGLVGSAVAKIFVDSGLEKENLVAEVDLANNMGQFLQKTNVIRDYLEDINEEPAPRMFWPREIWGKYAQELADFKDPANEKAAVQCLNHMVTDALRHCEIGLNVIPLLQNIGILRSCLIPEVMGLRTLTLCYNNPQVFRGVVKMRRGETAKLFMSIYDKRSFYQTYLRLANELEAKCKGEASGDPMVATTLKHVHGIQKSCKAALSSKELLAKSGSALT

In the case of `CC(C)=CCC/C(C)=C/CC/C(C)=C/CC/C(C)=C/COP(=O)(O)OP(=O)(O)O` [GGPP], at SSL-2, the “radioactive TLC assay” value was “allowing SSL-2 and SSL-1 plus SSL-2 to use GGPP to generate minor amounts of lycopaoctaene”.
Regarding `CC(C)=CCC/C(C)=C/CC/C(C)=C/COP(=O)(O)OP(=O)(O)O` [FPP], the “radioactive TLC assay” value at SlSS (product squalene) and on BSS (SS from race B) (product squalene) was “the typical SS enzymes display SS activity as their main catalytic function” in each case. Also, on LSS (SS from race L), the “GC-MS product assay; radioactive TLC assay” value is “LSS was shown to yield squalene as its sole product in an in vitro assay”.
`C=C(CC[C@]12O[C@H](C(=O)O)[C@@](O)(C(=O)O)[C@](C(=O)O)(O1)[C@H](OC(=O)/C=C/[C@@H](C)C[C@@H](C)CC)[C@H]2O)[C@@H](OC(C)=O)[C@H](C)Cc1ccccc1` [squalestatin]: the “strong inhibition at 20 nM” value in data set [1] is “LOS is strongly inhibited by squalestatin (Fig. 5c), a potent SS inhibitor”.
`C/C(=C\COP(=O)(O)OP(=O)(O)O)CCC[C@H](C)CCC[C@H](C)CCCC(C)C` [PPP]: the “radioactive TLC assay” value on SlSS (product lycopadiene (minute)) is “BSS and SlSS also using PPP to produce minute amounts of lycopadiene”; on BSS (SS from race B) (product lycopadiene (minute)) it was “BSS and SlSS also using PPP to produce minute amounts of lycopadiene”.

B1: LOS (lycopaoctaene synthase) (Botryococcus braunii) (protein)
chain: MKYTDFLAHPDEIIPTIRMMYADYRLKNMEIKDPSVRFCYNMLNRVSRSFAMVIQQLPVELRDATCVFYLILRALDTVEDDMAIPKEVKIPMLRTFHEHLSDRSWKIKCGYGPYVDLMDNYPLVTDVYLRFDEGTKAVIKDITRRMGNGMADFIDLDEVLTIPQYDLYCHYVAGLCGIGMCKLFVDSGLEKEDLVAEEDLANQMGLFLQKNNIVRDYLEDINELPAPRMFWPKEIWGNYAKQLDEFKDPKNLDKAMLCLNHMVTDALRHCEVGLRSLSLLHNPNILRAVLIPQVMGVRTLTLVYNNPEVFRGVVKMRRGETAKIFVTTTSKLSFFRTYLQFANEMEQKCLTEAKNDPMVALTLKRVQGVQAACRAAIVKAEIAEGAKGPS
notes: LOS delta391-444: C-terminal transmembrane domain deleted from 444-residue protein, N-terminal 6xHis (pET28a), E. coli BL21(DE3), Ni-NTA
For B1, the Michaelis-Menten constant (Km) in data set [2] amounted to 110 ± 10 µM; in data set [3], 70 ± 20 µM; in data set [4], 130 ± 20 µM. Besides, the kcat is 0.00116 s⁻¹ in data set [2], 0.0114 s⁻¹ in data set [3] and 0.0205 s⁻¹ in data set [4]. Further, the kcat/Km in data set [2] was 10.3 M⁻¹ s⁻¹; in data set [3], 165 M⁻¹ s⁻¹; in data set [4], 162 M⁻¹ s⁻¹.
